# Measured values taken from the RNAGym collection of RNA variant scans (doi:10.1073/pnas.2313332121).
# This sample holds only a part of the variants without activity.
# B1: TPR 5TU (parent)
# chain: GGAUCUUCUCGAUCUAACAAAAAAGACAAAUCUGCCACAAAGCUUGAGAGCAUCUUCGGAUGCAGAGGCGGCAGCCUUCGGUGGCGCGAUAGCGCCAACGUUCUCAACUAUGACACGCAAAACGCGUGCUCCGUUGAAUGGAGUUUAUCAUG
# Variants of: B1
# Assay: polymerase ribozyme fitness, log enrichment relative to wild type (log ratio); higher = more active; in vitro selection for triplet polymerase activity
# In short: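 The heterodimeric triplet polymerase ribozyme's subunits were each mutagenized into PCR-built libraries and transcribed. Every library was selected once, in triplicate, by annealing with a biotinylated primer, the partner subunit and triplets, incubating frozen at −7 °C, gel-excising extended constructs, capturing on streptavidin beads and running RT-PCR. Input and output libraries were Illumina-sequenced, with genotypes kept only at ≥10 input reads and ≥1 read per output. Fitness, from inverse-variance-weighted replicate averages, is the base-2 logarithm of genotype enrichment over wild-type enrichment.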
row,Variant,polymerase ribozyme fitness (log ratio)
1,G94C G124U G143U,-3.6
2,C95U C132A,-2.32
3,A97C C103G C114G,-3.86
4,C96G U102A U109C,≤ -4.2
5,G94A C131U,0.309
6,C96G A120G,-2
7,C96G A120C,0.168
8,C96U A97G,-0.535
9,C96U A97U,-0.832
10,C93U G141A,-1.7
11,C96A A98U C103G U109A A121U,≤ -4.2
12,G94C G100C C131U G133C C149G,≤ -4.2
13,A98G U127C,-3.01
14,G94C A106G,-1.31
15,C93U A98C,-0.981
16,C96A A106C,-0.591
17,A89G U139G,-0.875
18,A91U U134G A137U,≤ -4.2
19,C96A U151G,≤ -4.2
20,C93A A97G,-3.37
21,C93A A97U,-3.38
22,C95U A119U,-0.544
23,C95U A119G,0.353
24,A98G U101C G143U C149U,≤ -4.2

row,Variant,polymerase ribozyme fitness (log ratio)
1,A89G A97G A113U C118A A120C G141C,≤ -4.2
2,G94C C105G C116A,-2.89
3,A98G G133C,-1.69
4,G94U C125U G143U,-4.16
5,C93G C114U,-3.97
6,C93A G143A,-2.78
7,A91U G124U C131G,≤ -4.2
8,C93U A122U,-0.696
9,A91G C118U,-3.15
10,A91G C118G,-3.49
11,C96G A137U,-4
12,C93G A107U,-4.14
13,U90A A107G,≤ -4.2
14,G92A A106G,-2.36
15,C96A A115C,-0.888
16,C96A A115U,-2.29
17,C96U U102G U144A A150U,≤ -4.2
18,A97U G152A,-2.62
19,A91G A142C,-3.5
20,G92U C103U G136U,-3.43
21,C96U C132A,-1.63
22,G94C U127C,-2.45
23,A89U C96U A138G U146G,≤ -4.2
24,C93U A98G C103A,-2.73

row,Variant,polymerase ribozyme fitness (log ratio)
1,C93G G128U U146C,≤ -4.2
2,G94A G136C,-3.98
3,C93U G128U,-3.6
4,C93U G128C,-3.31
5,A89G U134C,-0.372
6,U90A C95U,≤ -4.2
7,G92C C95A,-2.12
8,G94C C96U G136A G140A,≤ -4.2
9,A89G G117U,-0.974
10,C95U G141U,0.762
11,G94A A115U,-1.76
12,A89U C95G,-1.9
13,C93A U148G,≤ -4.2
14,C93A U148C,-3.62
15,C96U A119U,-0.778
16,C96A U145A,0.431
17,G92C U101G C131A,-3.96
18,G94U C95A G152A,-3.85
19,A91U A106G,-4.01
20,G94U U148C,-2.92
21,C96U U102C C125U,-2.51
22,A91U U111C,≤ -4.2
23,C93A A150C,-3.74
24,G94U C108U,-3.54

row,Variant,polymerase ribozyme fitness (log ratio)
1,A91G C105U C131A,-3.83
2,C93A A119G A120U,-2.53
3,G94U G141C U144G,-1.83
4,G94C A97U G136U,-3.38
5,G92C U135G,-3.12
6,G92C U135C,-2.88
7,C96U A122G,-0.14
8,C96U A122C,-0.314
9,C93U A98G G124C,-1.76
10,C96G G141A,-0.288
11,A89G G92C A97C C114U,-3.82
12,C96U A121U U139A,≤ -4.2
13,C96A U134C A138G G141C,-4.07
14,U90G C116G,-3.78
15,C96U G124A A147U,0.911
16,A97U U148C,-1.51
17,C93G A142G,-3.81
18,G94U U102C,-2.06
19,G94U A147G,-1.51
20,A91U A120U,≤ -4.2
21,A97G U101G,0.358
22,C96G C116A A138C A147C,-3.36
23,G92C A138G G140A,≤ -4.2
24,C93G A122U,-2.98

row,Variant,polymerase ribozyme fitness (log ratio)
1,C95U C116G G133U,≤ -4.2
2,C93A C125A,-1.68
3,G94C A106C C116U,-3.12
4,C93G C108G C116G G133C,-3.85
5,C96A A150C,-3.12
6,A89G A110U U151A,-3.58
7,C96A C116U,-0.662
8,A91G G133A G141U G143U,≤ -4.2
9,C96A G140U,-3.47
10,G92A C105U G141C,-3.39
11,C93A U102A A137C,≤ -4.2
12,G94C A122C,-0.988
13,C95U C103G,-1.69
14,C96G C114A,-4.19
15,C96G C114U,-2.18
16,C93G C96A C105U C116U,-4.17
17,C96U C125U,-0.382
18,C96U C125A,-0.0844
19,A98U A150C,-2.82
20,A91G C95U C125U,-4.09
21,G92A C103A G126A,-3.74
22,C95U C96A,-1.02
23,A97C A119G,0.72
24,A89U A107U G133A A142G,≤ -4.2

row,Variant,polymerase ribozyme fitness (log ratio)
1,C96U A147U,1.21
2,C96U A147G,-1.18
3,U90A C99U U111C,-4.13
4,C93U C114U,-2.54
5,G92U C105U A107U A110C A138C,≤ -4.2
6,U90C G94U,-3.46
7,G92A G141C A147U,-3.44
8,C96U A98G,-1.3
9,U90C A91U C114U C118U U144G,-4.15
10,C96G A97U C118A,-3.08
11,A97U C132A,-2.65
12,C93G C125G A150U,-4.06
13,G94U G140U,-3.84
14,C96G U130C,0.873
15,G94A U127G U146G,-3.33
16,C93U C149A,-4.05
17,C93G G94U C108G,≤ -4.2
18,C93G A98U C114A,-3.85
19,C93G A98C G143C,-4.05
20,A91G G152A,-3.71
21,C93A G124C,-2.88
22,C96G A122U,-1.49
23,U90C U102C A107U,≤ -4.2
24,A97U U104G,-0.956

row,Variant,polymerase ribozyme fitness (log ratio)
1,C93U G133U,-3.7
2,G92A A98G,-3
3,C93U A119U G141A,-0.528
4,C93G G141U,-2.01
5,G94U C123G G141A U146C,-2.83
6,C95G A98G,-1.57
7,C96G A115G C123A A147U,-0.404
8,C96G A142G U145G A147U,-2.85
9,A98G U127G G141A,≤ -4.2
10,C93A A107G,≤ -4.2
11,C93U G143U,-3.38
12,G94A C149U,-1.24
13,A91G C114A C116U A137C,-3.79
14,G92A G152U,-3.58
15,C93U C99A G128C,≤ -4.2
16,A91G G140A,-4.12
17,C95U U130G,-2.55
18,A91U U127G,≤ -4.2
19,G94U C116G,-0.502
20,C96A A97G,-0.635
21,A89U A97U U101A A107C A121C G140U U148G,≤ -4.2
22,C96U C99A G133C G141A,≤ -4.2
23,A89U C96U C118U A122G U139G,-0.0743
